B1: bispecific antibody LB1412 (bispecific antibody, human IgG4 S228P, kappa)
light: EIVLTQSPATLSLSPGERATLSCRASKGVSTSGYSYLHWYQQKPGQAPRLLIYLASYLESGVPARFSGSGSGTDFTLTISSLEPEDFAVYYCQHSRDLPLTFGGGTKVEIKRTVAAPSVFIFPPSDEQLKSGTASVVCLLNNFYPREAKVQWKVDNALQSGNSQESVTEQDSKDSTYSLSSTLTLSKADYEKHKVYACEVTHQGLSSPVTKSFNRGEC
heavy: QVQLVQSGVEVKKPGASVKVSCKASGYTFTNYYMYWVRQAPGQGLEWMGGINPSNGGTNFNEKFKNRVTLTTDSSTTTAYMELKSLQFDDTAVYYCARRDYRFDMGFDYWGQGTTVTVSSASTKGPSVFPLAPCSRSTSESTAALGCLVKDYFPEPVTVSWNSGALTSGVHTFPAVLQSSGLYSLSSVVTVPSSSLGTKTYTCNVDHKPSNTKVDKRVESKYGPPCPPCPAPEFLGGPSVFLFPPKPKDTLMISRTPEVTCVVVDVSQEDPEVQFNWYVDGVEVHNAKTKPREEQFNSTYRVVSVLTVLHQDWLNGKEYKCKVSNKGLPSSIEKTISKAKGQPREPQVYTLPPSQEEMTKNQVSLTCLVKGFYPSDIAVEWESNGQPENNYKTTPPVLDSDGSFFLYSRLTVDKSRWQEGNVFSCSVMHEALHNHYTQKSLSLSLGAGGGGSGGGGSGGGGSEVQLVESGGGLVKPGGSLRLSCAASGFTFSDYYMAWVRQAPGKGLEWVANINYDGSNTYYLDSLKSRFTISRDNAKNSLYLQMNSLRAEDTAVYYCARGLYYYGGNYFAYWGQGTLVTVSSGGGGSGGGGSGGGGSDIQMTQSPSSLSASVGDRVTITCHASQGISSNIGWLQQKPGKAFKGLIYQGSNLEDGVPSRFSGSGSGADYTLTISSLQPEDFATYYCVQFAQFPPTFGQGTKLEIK
B2: bispecific antibody LB1414 (bispecific antibody, human IgG4 S228P, kappa)
light: EIVLTQSPATLSLSPGERATLSCRASKGVSTSGYSYLHWYQQKPGQAPRLLIYLASYLESGVPARFSGSGSGTDFTLTISSLEPEDFAVYYCQHSRDLPLTFGGGTKVEIKRTVAAPSVFIFPPSDEQLKSGTASVVCLLNNFYPREAKVQWKVDNALQSGNSQESVTEQDSKDSTYSLSSTLTLSKADYEKHKVYACEVTHQGLSSPVTKSFNRGECGGGGSGGGGSGGGGSEVQLVESGGGLVKPGGSLRLSCAASGFTFSDYYMAWVRQAPGKGLEWVANINYDGSNTYYLDSLKSRFTISRDNAKNSLYLQMNSLRAEDTAVYYCARGLYYYGGNYFAYWGQGTLVTVSSGGGGSGGGGSGGGGSDIQMTQSPSSLSASVGDRVTITCHASQGISSNIGWLQQKPGKAFKGLIYQGSNLEDGVPSRFSGSGSGADYTLTISSLQPEDFATYYCVQFAQFPPTFGQGTKLEIK
heavy: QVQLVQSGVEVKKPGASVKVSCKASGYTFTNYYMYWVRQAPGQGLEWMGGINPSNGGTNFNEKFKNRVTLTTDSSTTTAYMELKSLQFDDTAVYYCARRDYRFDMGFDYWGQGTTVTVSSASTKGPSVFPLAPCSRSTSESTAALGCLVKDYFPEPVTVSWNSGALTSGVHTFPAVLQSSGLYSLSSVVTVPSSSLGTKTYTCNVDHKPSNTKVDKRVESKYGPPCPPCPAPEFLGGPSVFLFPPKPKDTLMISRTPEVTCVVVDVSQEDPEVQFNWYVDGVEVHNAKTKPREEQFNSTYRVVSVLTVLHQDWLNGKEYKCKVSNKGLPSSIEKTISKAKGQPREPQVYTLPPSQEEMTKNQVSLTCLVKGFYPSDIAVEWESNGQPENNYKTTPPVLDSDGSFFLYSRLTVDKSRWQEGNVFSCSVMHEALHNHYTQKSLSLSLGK
B3: bispecific antibody LB1413 (bispecific antibody, human IgG4 S228P, kappa)
light: DIQMTQSPSSLSASVGDRVTITCHASQGISSNIGWLQQKPGKAFKGLIYQGSNLEDGVPSRFSGSGSGADYTLTISSLQPEDFATYYCVQFAQFPPTFGQGTKLEIKGGGGSGGGGSGGGGSEVQLVESGGGLVKPGGSLRLSCAASGFTFSDYYMAWVRQAPGKGLEWVANINYDGSNTYYLDSLKSRFTISRDNAKNSLYLQMNSLRAEDTAVYYCARGLYYYGGNYFAYWGQGTLVTVSSGGGGSGGGGSGGGGSEIVLTQSPATLSLSPGERATLSCRASKGVSTSGYSYLHWYQQKPGQAPRLLIYLASYLESGVPARFSGSGSGTDFTLTISSLEPEDFAVYYCQHSRDLPLTFGGGTKVEIKRTVAAPSVFIFPPSDEQLKSGTASVVCLLNNFYPREAKVQWKVDNALQSGNSQESVTEQDSKDSTYSLSSTLTLSKADYEKHKVYACEVTHQGLSSPVTKSFNRGEC
heavy: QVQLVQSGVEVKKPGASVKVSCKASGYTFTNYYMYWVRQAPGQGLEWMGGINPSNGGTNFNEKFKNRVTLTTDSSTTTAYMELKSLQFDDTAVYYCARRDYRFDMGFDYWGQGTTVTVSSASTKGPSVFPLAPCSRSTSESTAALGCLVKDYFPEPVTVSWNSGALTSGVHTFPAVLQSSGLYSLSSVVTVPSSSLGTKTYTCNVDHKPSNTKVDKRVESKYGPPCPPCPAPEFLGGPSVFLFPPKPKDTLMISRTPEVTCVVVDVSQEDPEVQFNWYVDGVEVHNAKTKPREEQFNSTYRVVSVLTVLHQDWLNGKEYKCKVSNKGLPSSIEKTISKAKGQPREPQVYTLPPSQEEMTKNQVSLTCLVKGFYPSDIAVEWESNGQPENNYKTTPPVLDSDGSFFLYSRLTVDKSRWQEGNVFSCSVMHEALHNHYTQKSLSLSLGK
notes: ab6VL-(G4S)3-ab6VH-(G4S)3-PemVL-κ with PemVH-hIgG4
B4: bispecific antibody LB241 (bispecific antibody, human IgG4 S228P, kappa)
light: B3 light
heavy: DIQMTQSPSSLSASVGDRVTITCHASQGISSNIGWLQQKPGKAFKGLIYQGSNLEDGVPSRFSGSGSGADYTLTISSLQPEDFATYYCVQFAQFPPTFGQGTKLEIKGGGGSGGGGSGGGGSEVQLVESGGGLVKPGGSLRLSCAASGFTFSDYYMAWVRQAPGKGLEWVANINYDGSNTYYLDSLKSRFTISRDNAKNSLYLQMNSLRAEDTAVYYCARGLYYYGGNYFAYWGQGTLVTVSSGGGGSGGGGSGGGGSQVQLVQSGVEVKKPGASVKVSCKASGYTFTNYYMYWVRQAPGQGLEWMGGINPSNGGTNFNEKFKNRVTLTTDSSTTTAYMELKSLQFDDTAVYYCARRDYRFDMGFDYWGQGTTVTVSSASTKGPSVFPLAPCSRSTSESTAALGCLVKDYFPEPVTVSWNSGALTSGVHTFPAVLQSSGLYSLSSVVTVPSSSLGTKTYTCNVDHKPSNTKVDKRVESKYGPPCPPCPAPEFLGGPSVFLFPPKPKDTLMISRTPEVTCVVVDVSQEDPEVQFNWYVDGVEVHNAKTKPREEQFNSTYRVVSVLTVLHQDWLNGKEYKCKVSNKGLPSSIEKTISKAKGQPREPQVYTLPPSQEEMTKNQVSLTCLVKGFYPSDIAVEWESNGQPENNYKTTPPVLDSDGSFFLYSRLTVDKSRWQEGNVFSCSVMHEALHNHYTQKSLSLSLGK

Legend:
[1] = molecular target: T1, human TIM-3 extracellular domain-human IgG1 Fc fusion protein (human, UniProt Q8TDQ0 22-199); assay: ELISA
T1 construct: Made in house or bought (ACROBiosystems TM3-H5258); also called TIM-3-hFc; not shown: human IgG1 Fc
Procedure: Goat-anti-hFc (Jackson, 109-005-008) was diluted to a concentration of 1 μg/ml with PBS buffer (pH 7.4) and added to a 96-well microplate (Corning, CLS3590-100EA) at a volume of 50 μl/well, then incubated in an incubator at 37° C. for 2 hours (Or the antigen TIM-3 was directly used to coat the microplate with a concentration of 0.5 μg/ml, and then the antibody to be tested was directly added). After discarding the liquid, a blocking solution of 5% skimmed milk (skimmed milk powder purchased from Bright) diluted with PBS was added at 200 μl per well, and the microplate was incubated for 2.5 hours at 37° C. or overnight (16-18 hours) at 4° C. for blocking. The blocking solution was discarded, and the microplate was washed 5 times with PBST buffer (PBS with pH 7.4 containing 0.05% tween-20), then 50 μl/well of 0.5 μg/ml TIM-3-hFc (Example 1) was added and incubated for 2 hours in a 37° C. incubator. After incubation, the microplate was washed 6 times with PB ST. 50 μl/well of supernatant (containing testing antibody) or different concentrations of the antibody to be tested was added, and the microplate was incubated at 37° C. for 2 hours and washed 5 times with PBST. 50 μl/well of 1:2500 diluted HRP-labeled secondary antibody (Jackson Immuno Research, 115-035-003) was added to the microplate, incubating at 37° C. for 1 hour. After washing the microplate 5 times with PBST, 50 μl/well TMB chromogenic substrate (KPL, 52-00-03) was added to the microplate, followed by incubating at room temperature for 10-15 min.

[2] = molecular target: T2, human PD-1 extracellular domain protein expressed in Example 1 (tag not stated) (human, UniProt Q15116 25-170); assay: ELISA, PD-1 coated
T2 construct: extracellular domain; also called PD-1 protein; not shown: human IgG1 Fc or his tag
Procedure: (§1) PD-1 expressed in Example 1 was diluted to a concentration of 1 μg/ml with PBS buffer, pH 7.4, and added to a 96-well microplate (Corning, CLS3590-100EA) at 50 μl per well, thereby incubating in an incubator at 37° C. for 2 hours. After discarding the liquid, a blocking solution of 5% skimmed milk (Shanghai Shenggong Biological Engineering Co., Ltd., A600669-0250) diluted with PBS was added at 200 μl per well, followed by incubating at 37° C. for 3 hours or 4° C. overnight (16-18 hours)) for blocking. Subsequently, the blocking solution was discarded, and the microplate was washed 5 times with PBST buffer (pH 7.4 PBS containing 0.05% tween-20). […] Subsequently, the microplate was washed 5 times with PBST, then 50 μl/well of 1:2500 diluted HRP-labeled secondary antibody (Jackson Immuno Research, 115-035-003) was added, thereby incubating at 37° C. for 1 hour. After washing the microplate 5 times with PBST, 50 μl/well TMB chromogenic substrate (KPL, 52-00-03) was added, then incubated at room temperature for 5-10 min. Finally, 50 μl/well of 1M H₂SO₄ was added to stop the reaction. […] Go microplate reader (ThermoFisher, 51119200) was used to read the absorption value at 450 nm and the EC50 based on the OD value was calculated.

[3] = molecular target: T2, human PD-1 extracellular domain protein …; assay: ELISA, EC50 of bispecific over EC50 of the monoclonal control
Procedure: After washing the microplate 5 times with PBST, 50 μl/well TMB chromogenic substrate (KPL, 52-00-03) was added to the microplate, followed by incubating at room temperature for 10-15 min.
as §1

[4] = molecular target: T1, human TIM-3 extracellular domain-human …; assay: as above

Row | Binder | EC50 [1] [nM] | EC50 [2] [nM] | Multiple of EC50 variation [3] [ratio] | Multiple of EC50 variation [4] [ratio]
1 | B1 | 3.42 | 0.079 | 0.82 | 4.37
2 | B2 | 3.52 | 0.045 | 0.47 | 4.5
3 | B3 | 0.521 | 0.066 | 0.69 | 0.67
4 | B4 | 0.547 | 0.365 | 3.8 | 0.7

From US20210269521A1 (L AND L BIOPHARMA, published 2021)
